# From publication PMC11830004, “In situ and in vitro cryo-EM reveal structures of mycobacterial encapsulin assembly intermediates” (Communications Biology, 2025)
# “And” between values parts separate entries of the source, which are not always exact repeats. Equal entries are not always repeated.
# B1: Mycobacterium tuberculosis encapsulin shell protein (Enctb) (natural protein)
# chain: MNNLYRDLAPVTEAAWAEIELEAARTFKRHIAGRRVVDVSDPGGPVTAAVSTGRLIDVKAPTNGVIAHLRASKPLVRLRVPFTLSRNEIDDVERGSKDSDWEPVKEAAKKLAFVEDRTIFEGYSAASIEGIRSASSNPALTLPEDPREIPDVISQALSELRLAGVDGPYSVLLSADVYTKVSETSDHGYPIREHLNRLVDGDIIWAPAIDGAFVLTTRGGDFDLQLGTDVAIGYASHDTDTVRLYLQETLTFLCYTAEASVALSH
# notes: also called Rv0798c; copies: 60
# Molecular target: the molecule itself
# Test: cryo-EM structure
protein,measurement,value
B1,stoichiometry N,60 and 48 and 52 and 54
